Experimental data as given in patent US20090311283A1.
Read-outs that look alike come from different tables or passages of the source.

Assays:
HLA-A*1101 (human) [1] = assay: competition with 125I-labelled probe peptide for purified HLA, gel filtration
HLA-A*0301 (human) [2] = assay: as above
HLA-A*0301 (human) [3] = assay: competition with 125I-labelled probe peptide for purified HLA-A*0301, gel filtration; relative binding against the standard peptide; conditions: scale: ratio
HLA-A*3101 (Human) [4] = conditions: remark: other sources report otherwise
HLA-A*3101 (human) [5] = assay: competition with 125I-labelled probe peptide for purified HLA-A*3101, gel filtration; ratio to standard peptide 941.12
HLA-A*6801 (human) [6] = assay: competition with 125I-labelled probe peptide for purified HLA-A*6801, gel filtration; ratio to standard peptide 941.12
HLA-A*1101 (human) [7] = conditions: for binding affinity ratio (IC50 standard peptide / IC50 test peptide): remark: other sources report otherwise
HLA-A*3301 (human) [8] = conditions: for binding affinity ratio (IC50 standard peptide / IC50 test peptide): remark: other sources report otherwise
HLA-A*3101 (human) [9] = assay: competitive inhibition of 125I-labelled probe peptide binding to purified HLA; relative to standard peptide
HLA-A*0301 (human) [10] = assay: as above
HLA-A*3301 (human) [11] = assay: as above
HLA-A*1101 (human) [12] = assay: as above
HLA-A*3301 (human) [13] = assay: competition with 125I-labelled probe peptide for purified HLA, gel filtration; conditions: remark: other sources report otherwise
HLA-A*6801 (human) [14] = assay: as above; conditions: remark: other sources report otherwise
HLA-A*0301 (human) [15] = assay: inhibition of binding of a 125I-labelled probe peptide to purified HLA-A*0301, gel filtration; relative to the standard peptide
HLA-A*3101 (human) [16] = assay: competition with 125I probe peptide on purified HLA-A*3101; relative to standard peptide 941.12; conditions: remark: other sources report otherwise
HLA-A*6801 (human) [17] = assay: competition with 125I probe peptide on purified HLA-A*6801; relative to standard peptide 941.12; conditions: remark: other sources report otherwise
HLA-A*0301 (human) [18] = assay: competition with 125I probe peptide on purified HLA-A*0301; relative to standard peptide 941.12; conditions: remark: other sources report otherwise
HLA-B*5401 (Human) = assay: competition with 125I-labelled probe peptide for purified HLA, gel filtration
HLA-B*0702 (Human) = assay: as above
HLA-B*5301 (Human) = assay: as above
HLA-B*5101 (Human) = assay: as above
[19] = remark: other sources report otherwise

For YLVSFGVWIR (modifications not checked) [… (HBV NUC 118)], the binding affinity ratio (IC50 of standard peptide / IC50 of test peptide) (HLA-A*1101 (human) [1]) was 0.0002 and the binding affinity ratio (IC50 of standard peptide / IC50 of test peptide) (HLA-A*0301 (human) [2]) was 0.0005.

TTVVRRRGR (modifications not checked) [HBV NUC 175 peptide …] gave a binding affinity ratio (relative to standard peptide) (HLA-A*0301 (human) [3]; [19]) of 0.0008.

With FVLGGCRHK (modifications not checked) [Peptide 1.0219 (HBV X 1550, …)] the IC50 (HLA-A*3101 (Human) [4]) was 1500 nM.

Binder PLEEELPR (modifications not checked) [HBV POL 20 peptide PLEEELPR] has a binding affinity ratio (IC50 of standard peptide / IC50 of test peptide) (HLA-A*3101 (human) [5]) of -0.0009, a binding affinity ratio (IC50 of standard peptide / IC50 of test peptide) (HLA-A*6801 (human) [6]) of 0.0001 and a binding affinity ratio (IC50 of standard peptide / IC50 of test peptide) (HLA-A*1101 (human) [7]) of -0.0002. For the same binder, the binding affinity ratio (IC50 of standard peptide / IC50 of test peptide) (HLA-A*3301 (human) [8]) was -0.0009.

Work on GMDIDPYK (modifications not checked) [HBV NUC 29 peptide GMDIDPYK] yielded a binding affinity ratio (IC50 of standard peptide / IC50 of test peptide) (HLA-A*3101 (human) [9]) of -0.0009, a binding affinity ratio (IC50 of standard peptide / IC50 of test peptide) (HLA-A*0301 (human) [10]) of 0.0006 and a binding affinity ratio (IC50 of standard peptide / IC50 of test peptide) (HLA-A*3301 (human) [11]) of -0.0009.

For KAGILYKR (modifications not checked) [HBV POL 153 peptide KAGILYKR], the binding affinity ratio (IC50 of standard peptide / IC50 of test peptide) (HLA-A*3101 (human) [9]) was 0.0015, the binding affinity ratio (IC50 of standard peptide / IC50 of test peptide) (HLA-A*1101 (human) [12]) was -0.0002 and the binding affinity ratio (IC50 of standard peptide / IC50 of test peptide) (HLA-A*3301 (human) [11]) was -0.0009.

WLWGMDIDPYK (modifications not checked) [… (HBV NUC 26)] was tested, and the binding affinity ratio (IC50 of standard peptide / IC50 of test peptide) (HLA-A*1101 (human) [1]; [19]) was 0.0013, the binding affinity ratio (IC50 of standard peptide / IC50 of test peptide) (HLA-A*0301 (human) [2]; [19]) was 0.003 and the binding affinity ratio (IC50 of standard peptide / IC50 of test peptide) (HLA-A*3301 (human) [13]) was 0.0039. The binding affinity ratio (IC50 of standard peptide / IC50 of test peptide) (HLA-A*6801 (human) [14]) was 0.049.

With SAGPCALRF (modifications not checked) [HBV X 65 peptide …] the binding affinity ratio (IC50 of standard peptide / IC50 of test peptide) (HLA-A*0301 (human) [15]) was -0.0003.

With SAICSVVR (modifications not checked) [HBV POL 520 peptide SAICSVVR] the binding affinity ratio (IC50 standard peptide / IC50 test peptide) (HLA-A*3101 (human) [16]) was 0.028, the binding affinity ratio (IC50 of standard peptide / IC50 of test peptide) (HLA-A*0301 (human) [15]; [19]) was -0.0002 and the binding affinity ratio (IC50 standard peptide / IC50 test peptide) (HLA-A*1101 (human) [7]) was 0.0071. It also gave a binding affinity ratio (IC50 standard peptide / IC50 test peptide) (HLA-A*3301 (human) [8]) of 0.0081, a binding affinity ratio (IC50 standard peptide / IC50 test peptide) (HLA-A*6801 (human) [17]) of 0.069 and a binding affinity ratio (IC50 standard peptide / IC50 test peptide) (HLA-A*0301 (human) [18]) of -0.0002.

For SVVLSRKY (modifications not checked) [HBV POL 739 peptide SVVLSRKY], the binding affinity ratio (relative to standard peptide) (HLA-A*0301 (human) [3]) was -0.0002.

With KVFVLGGCR (modifications not checked) [Peptide 1.0993 (HBV X 130, …)] the IC50 (HLA-A*3101 (Human) [4]) was 30 nM.

NPLGFFPDHQL (modifications not checked) [HBV ENV 9 peptide …] showed a binding affinity ratio (IC50 of standard peptide / IC50 of test peptide) (HLA-B*5401 (Human)) of 0.0001, a binding affinity ratio (IC50 of standard peptide / IC50 of test peptide) (HLA-B*0702 (Human)) of 0.0012 and a binding affinity ratio (IC50 of standard peptide / IC50 of test peptide) (HLA-B*5301 (Human)) of 0.0028. It also gave a binding affinity ratio (IC50 of standard peptide / IC50 of test peptide) (HLA-B*5101 (Human)) of 0.0001.

PLSYQHFR (modifications not checked) [HBV POL 2 peptide PLSYQHFR] was tested, and the binding affinity ratio (IC50 of standard peptide / IC50 of test peptide) (HLA-A*3101 (human) [5]) was -0.0009, the binding affinity ratio (IC50 of standard peptide / IC50 of test peptide) (HLA-A*6801 (human) [6]) was 0.0001 and the binding affinity ratio (IC50 of standard peptide / IC50 of test peptide) (HLA-A*3301 (human) [8]) was -0.0009.

For TAELLAACFAR (modifications not checked) [HBV POL 716 peptide …], the binding affinity ratio (relative to standard peptide) (HLA-A*0301 (human) [3]; [19]) was 0.0006, the binding affinity ratio (IC50 standard peptide / IC50 test peptide) (HLA-A*3101 (human) [16]) was 0.0066 and the binding affinity ratio (IC50 standard peptide / IC50 test peptide) (HLA-A*1101 (human) [7]) was 0.0023. The binding affinity ratio (IC50 standard peptide / IC50 test peptide) (HLA-A*3301 (human) [8]) was 0.16, the binding affinity ratio (IC50 standard peptide / IC50 test peptide) (HLA-A*6801 (human) [17]) was 0.059 and the binding affinity ratio (IC50 standard peptide / IC50 test peptide) (HLA-A*0301 (human) [18]) was 0.0006.
